The values below come from patent US20190359693A1.

What all share (assay): cell-based or functional assay
The target of assay [1] is hemagglutinin (HA) of influenza virus H3N2 A/Brisbane/10/07 (influenza A virus).
In assay [2] the target is hemagglutinin (HA) of influenza virus H5N1 A/Vietnam/1194/04 (influenza A virus).
Assay [3] concerns the target hemagglutinin (HA) of influenza virus H7N3 A/NIBRG/60 (A/mallard/Netherlands/12/00) (influenza A virus).
Assay [4] concerns the target HA of H1N1 A/New Caledonia/20/1999 (influenza A virus).
Assay [5] deals with HA of H3N2 A/Brisbane/10/2007 (influenza A virus).
The target of assay [6] is HA of H1N1 A/Puerto Rico/8/34-MA (influenza A virus).
The target in assay [7] is HA of H5N1 A/Vietnam/1194/04 (influenza A virus).
Assay [8] deals with HA of H7N3 A/NIBRG/60 (A/mallard/NL/12/00) (influenza A virus).
Assay [9] has as its target hemagglutinin (HA) of influenza virus H1N1 A/New Caledonia/20/99 (influenza A virus).
Assay [10] deals with hemagglutinin (HA) of influenza virus H3N2 A/Wisconsin/67/05 (influenza A virus).
The target of assay [11] is hemagglutinin (HA) of influenza virus B/Lee/40 (Old) (influenza B virus) (UniProt P03460).
In assay [12] the target is hemagglutinin (HA) of influenza virus B/Florida/04/06 (Yamagata) (influenza B virus).
Assay [13] concerns the target hemagglutinin (HA) of influenza virus H1N1 A/Puerto Rico/8/34-MA (influenza A virus).

B1: MD2309 (bispecific antibody)
chain: EVQLVESGGGLVQAGDSLRISCAASGRTLSIYSMGWFRQAPGKEREFVATIGWNSGRTFYPDSLKGRFTISRDNARNTLYLQMNNLRPEDTAVYYCAAAKGPLRLSSQADYWGQGTQVTVSSGGGGSGGGGSEVQLVESGGGLVQAGDSLRLSCAASGPTFGMSAMGWFRQAPGKEREFVAAISGLGNPNYSDDVKGRFTISRENGRNTVYLQMNSLKPEDTAVYYCAQRKVYHVQGGDRPQAYDYWGQGTQVTVSSGGGGSGGGGSEVQLVESGGGLVQPGGSLRLSCAATGFTLENKAIGWFRQTPGSEREGVLCISKSGSWTYYTDSMRGRFTISRDNAENTVYLQMDSLKPEDTAVYYCATTTAGGGLCWDGTTFSRLASSWGQGTQVTVSS
Turning to B1, the average neutralization titer was determined as 12.8 nM in [1], 12.8 nM in [2] and 9.1 nM in assay [3].

B2: MD2310 (bispecific antibody)
chain: EVQLVESGGGLVQPGGSLRLSCAATGFTLENKAIGWFRQTPGSEREGVLCISKSGSWTYYTDSMRGRFTISRDNAENTVYLQMDSLKPEDTAVYYCATTTAGGGLCWDGTTFSRLASSWGQGTQVTVSSGGGGSGGGGSEVQLVESGGGLVQAGDSLRLSCAASGPTFGMSAMGWFRQAPGKEREFVAAISGLGNPNYSDDVKGRFTISRENGRNTVYLQMNSLKPEDTAVYYCAQRKVYHVQGGDRPQAYDYWGQGTQVTVSSGGGGSGGGGSEVQLVESGGGLVQAGDSLRISCAASGRTLSIYSMGWFRQAPGKEREFVATIGWNSGRTFYPDSLKGRFTISRDNARNTLYLQMNNLRPEDTAVYYCAAAKGPLRLSSQADYWGQGTQVTVSS
With B2, the average neutralization titer in [1] was found to be 25.5 nM; in assay [2] it was 21.6 nM; in assay [3], 30.4 nM.

B3: SD1034 (VHH)
VHH: EVQLVESGGGLVQAGGSLRLSCAASGTIFGIRVNTMGWYRQAPGEQRELVATITRSGGTNYADSVKDRFTISGDFAKDTVYLQMMHLKPEDTAVYYCNGRWALTDYWGQGTQVTVSS
Turning to B3, the VNA titer is 161 nM in assay [4]; > 1000 nM in assay [5]; 756 nM in assay [6]; 722 nM in assay [7]; > 1000 nM in [8].

B4: MD2311 (bispecific antibody)
chain: EVQLVESGGGLVQAGDSLRLSCAASGPTFGMSAMGWFRQAPGKEREFVAAISGLGNPNYSDDVKGRFTISRENGRNTVYLQMNSLKPEDTAVYYCAQRKVYHVQGGDRPQAYDYWGQGTQVTVSSGGGGSGGGGSEVQLVESGGGLVQPGGSLRLSCAATGFTLENKAIGWFRQTPGSEREGVLCISKSGSWTYYTDSMRGRFTISRDNAENTVYLQMDSLKPEDTAVYYCATTTAGGGLCWDGTTFSRLASSWGQGTQVTVSSGGGGSGGGGSEVQLVESGGGLVQAGDSLRISCAASGRTLSIYSMGWFRQAPGKEREFVATIGWNSGRTFYPDSLKGRFTISRDNARNTLYLQMNNLRPEDTAVYYCAAAKGPLRLSSQADYWGQGTQVTVSS
On to B4, for which the average neutralization titer in assay [1] worked out at 21.6 nM; in assay [2], 12.8 nM; in assay [3], 15.3 nM.

B5: MD2305 (bispecific antibody)
chain: EVQLVESGGGLVQPGGSLRLSCAVSISIFDIYAMDWYRQAPGKQRDLVATSFRDGSTNYADSVKGRFTISRDNAKNTLYLQMNSLKPEDTAVYLCHVSLYRDPLGVAGGMGVYWGKGALVTVSSGGGGSGGGGSEVQLVESGGGLVQPGGSLRLSCAATGFTLENKAIGWFRQTPGSEREGVLCISKSGSWTYYTDSMRGRFTISRDNAENTVYLQMDSLKPEDTAVYYCATTTAGGGLCWDGTTFSRLASSWGQGTQVTVSSGGGGSGGGGSEVQLVESGGGLVQPGGSLRLSCAVSISIFDIYAMDWYRQAPGKQRDLVATSFRDGSTNYADSVKGRFTISRDNAKNTLYLQMNSLKPEDTAVYLCHVSLYRDPLGVAGGMGVYWGKGALVTVSS
For B5, the figures for the average neutralization titer in [9] and in assay [10] were 4.3 nM and 21.7 nM, respectively.

B6: MD2304 (bispecific antibody)
chain: EVQLVESGGGLVQPGGSLRLSCAATGFTLENKAIGWFRQTPGSEREGVLCISKSGSWTYYTDSMRGRFTISRDNAENTVYLQMDSLKPEDTAVYYCATTTAGGGLCWDGTTFSRLASSWGQGTQVTVSSGGGGSGGGGSEVQLVESGGGLVQPGGSLRLSCAVSISIFDIYAMDWYRQAPGKQRDLVATSFRDGSTNYADSVKGRFTISRDNAKNTLYLQMNSLKPEDTAVYLCHVSLYRDPLGVAGGMGVYWGKGALVTVSSGGGGSGGGGSEVQLVESGGGLVQPGGSLRLSCAVSISIFDIYAMDWYRQAPGKQRDLVATSFRDGSTNYADSVKGRFTISRDNAKNTLYLQMNSLKPEDTAVYLCHVSLYRDPLGVAGGMGVYWGKGALVTVSS
Turning to B6, the average neutralization titer in assay [9] worked out at 20.6 nM; in assay [10] it was 18.2 nM.

B7: MD1223 (bispecific antibody)
chain: EVQLVESGGGLVQPGGSLKLSCAASGFTFSTSWMYWLRQAPGKGLEWVSVINTDGGTYYADSVKDRFTISRDNAKDTLYLQMSSLKSEDTAVYYCAKDWGGPEPTRGQGTQVTVSSAAAGGGGSGGGGSGGGGSGGGGSGGGGSGGGGSGGGGSEVQLVESGGGLVQPGGSLRLSCAATGFTLENKAIGWFRQTPGSEREGVLCISKSGSWTYYTDSMRGRFTISRDNAENTVYLQMDSLKPEDTAVYYCATTTAGGGLCWDGTTFSRLASSWGQGTQVTVSS
As to B7, the neutralization titer in assay [11] was 18 nM; in [12] it was 2.3 nM.

B8: MD2314 (bispecific antibody)
chain: EVQLVESGGGLVQAGDSLRLSCAASGPTFGMSAMGWFRQAPGKEREFVAAISGLGNPNYSDDVKGRFTISRENGRNTVYLQMNSLKPEDTAVYYCAQRKVYHVQGGDRPQAYDYWGQGTQVTVSSGGGGSGGGGSEVQLVESGGGLVQAGDSLRLSCAASGPTFGMSAMGWFRQAPGKEREFVAAISGLGNPNYSDDVKGRFTISRENGRNTVYLQMNSLKPEDTAVYYCAQRKVYHVQGGDRPQAYDYWGQGTQVTVSSGGGGSGGGGSEVQLVESGGGLVQPGGSLRLSCAATGFTLENKAIGWFRQTPGSEREGVLCISKSGSWTYYTDSMRGRFTISRDNAENTVYLQMDSLKPEDTAVYYCATTTAGGGLCWDGTTFSRLASSWGQGTQVTVSS
Regarding B8, the average neutralization titer in assay [1] is > 1000 nM; in assay [2], 6.5 nM; in assay [3], > 1000 nM.

B9: MD2306 (bispecific antibody)
chain: EVQLVESGGGLVQPGGSLRLSCAVSISIFDIYAMDWYRQAPGKQRDLVATSFRDGSTNYADSVKGRFTISRDNAKNTLYLQMNSLKPEDTAVYLCHVSLYRDPLGVAGGMGVYWGKGALVTVSSGGGGSGGGGSEVQLVESGGGLVQPGGSLRLSCAVSISIFDIYAMDWYRQAPGKQRDLVATSFRDGSTNYADSVKGRFTISRDNAKNTLYLQMNSLKPEDTAVYLCHVSLYRDPLGVAGGMGVYWGKGALVTVSSGGGGSGGGGSEVQLVESGGGLVQPGGSLRLSCAATGFTLENKAIGWFRQTPGSEREGVLCISKSGSWTYYTDSMRGRFTISRDNAENTVYLQMDSLKPEDTAVYYCATTTAGGGLCWDGTTFSRLASSWGQGTQVTVSS
In the case of B9, the average neutralization titer came out at 10.7 nM in assay [1]; 6.1 nM in assay [9]; 5.4 nM in assay [10]; 4.7 nM in assay [2]; 15.4 nM in [3].

B10: MD2302 (bispecific antibody)
chain: EVQLVESGGGLVQPGGSLRLSCAVSISIFDIYAMDWYRQAPGKQRDLVATSFRDGSTNYADSVKGRFTISRDNAKNTLYLQMNSLKPEDTAVYLCHVSLYRDPLGVAGGMGVYWGKGALVTVSSGGGGSGGGGSEVQLVESGGGLVQPGGSLRLSCAATGFTLENKAIGWFRQTPGSEREGVLCISKSGSWTYYTDSMRGRFTISRDNAENTVYLQMDSLKPEDTAVYYCATTTAGGGLCWDGTTFSRLASSWGQGTQVTVSSGGGGSGGGGSEVQLVESGGGLVQAGGSLKLSCAASGRTYAMGWFRQAPGKEREFVAHINALGTRTYYSDSVKGRFTISRDNAKNTEYLEMNNLKPEDTAVYYCTAQGQWRAAPVAVAAEYEFWGQGTQVTVSS
For the molecule B10, the values for the average neutralization titer in [9], in [10] and in [12] were 14.7 nM, 34.7 nM and 412 nM, respectively.

B11: MD2301 (bispecific antibody)
chain: EVQLVESGGGLVQPGGSLRLSCAATGFTLENKAIGWFRQTPGSEREGVLCISKSGSWTYYTDSMRGRFTISRDNAENTVYLQMDSLKPEDTAVYYCATTTAGGGLCWDGTTFSRLASSWGQGTQVTVSSGGGGSGGGGSEVQLVESGGGLVQPGGSLRLSCAVSISIFDIYAMDWYRQAPGKQRDLVATSFRDGSTNYADSVKGRFTISRDNAKNTLYLQMNSLKPEDTAVYLCHVSLYRDPLGVAGGMGVYWGKGALVTVSSGGGGSGGGGSEVQLVESGGGLVQAGGSLKLSCAASGRTYAMGWFRQAPGKEREFVAHINALGTRTYYSDSVKGRFTISRDNAKNTEYLEMNNLKPEDTAVYYCTAQGQWRAAPVAVAAEYEFWGQGTQVTVSS
Regarding B11, the average neutralization titer in [9] is 14.7 nM; in assay [10], 34.7 nM; in [12], 412 nM.

B12: SD1036 + SD1038 (protein)
VHH 1: EVQLVESGGGLVQAGGSLKLSCAASGRTYAMGWFRQAPGKEREFVAHINALGTRTYYSDSVKGRFTISRDNAKNTEYLEMNNLKPEDTAVYYCTAQGQWRAAPVAVAAEYEFWGQGTQVTVSS
VHH 2: EVQLVESGGGLVQPGGSLRLSCAVSISIFDIYAMDWYRQAPGKQRDLVATSFRDGSTNYADSVKGRFTISRDNAKNTLYLQMNSLKPEDTAVYLCHVSLYRDPLGVAGGMGVYWGKGALVTVSS
For the molecule B12, the neutralization titer in assay [13] is 6.8 nM; in assay [10], < 1000 nM; in assay [2] it was 19.3 nM.
